Data from US20250101129A1, “AFFINITY SUBSTANCE, COMPOUND, AND ANTIBODY AND THEIR SALTS” (Ajinomoto Co., Inc., priority 2022, published 2025).

Experiments:
[1] = biological target: EGFR on A-431 cells (EGFR-positive) (UniProt P00533); assay: flow cytometry on A-431 cells, Alexa Fluor 488 anti-human IgG secondary antibody
[2] = biological target: Recombinant human EGFR-Fc (R&D Systems), biotinylated (human) (UniProt P00533); assay: SPR Biacore T200, biotinylated human EGFR-Fc on Biotin CAPture chip, antibody as analyte, single cycle kinetics, 1:1 model
[3] = biological target: Biotinylated recombinant human FcRn (Immunitrack) (human) (UniProt P55899); assay: SPR Biacore T200, biotinylated human FcRn on chip SA, association at pH 6.0, single cycle kinetics, 1:1 model; dissociated at pH 7.4
[4] = biological target: EGFR on A-431 cells (EGFR-positive) (UniProt P00533); assay: flow cytometry, primary antibody then Alexa Fluor 488 goat anti-human IgG (H+L), A-431 cells; histogram peak at about 10^5, gate from a little above 10^4
[5] = biological target: HER2 on SKBR-3 cells (HER2-positive) (UniProt P04626); assay: flow cytometry, primary antibody then Alexa Fluor 488 goat anti-human IgG (H+L), SKBR-3 cells; histogram peak between 10^3 and 10^4, gate from a little below 10^3
[6] = biological target: Recombinant human HER2-Fc (R&D Systems), biotinylated (human) (UniProt P04626); assay: SPR Biacore T200, biotinylated human HER2-Fc on Biotin CAPture chip, antibody as analyte, single cycle kinetics, 1:1 model
[7] = biological target: Recombinant human HER2-Fc (R&D Systems), biotinylated (human) (UniProt P04626); assay: SPR (Biacore T200), single cycle kinetics, ligand biotinylated HER2-Fc on Biotin CAPture chip, HBS-EP+, 1:1 binding model
[8] = biological target: EGFR on A-431 cells (EGFR-positive) (UniProt P00533); assay: flow cytometry, primary antibody then Alexa Fluor 488 goat anti-human IgG (H+L), A-431 cells; histogram peak a little above 10^5, gate from a little above 10^4
[9] = biological target: Recombinant human PD-1-Fc (R&D Systems), biotinylated (human) (UniProt Q15116); assay: SPR Biacore T200, biotinylated human PD-1-Fc on Biotin CAPture chip, antibody as analyte, single cycle kinetics, 1:1 model
Chain of Recombinant human PD-1-Fc (R&D Systems), biotinylated (human) (Q15116 25-167 limits assumed): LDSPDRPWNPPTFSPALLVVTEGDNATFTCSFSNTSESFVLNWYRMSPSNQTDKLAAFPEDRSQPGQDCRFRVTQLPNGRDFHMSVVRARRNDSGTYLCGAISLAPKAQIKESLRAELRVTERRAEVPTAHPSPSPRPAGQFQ

[10] = biological target: EGFR on A-431 cells (EGFR-positive) (UniProt P00533); assay: flow cytometry on A431 (EGFR+) cells, fraction of cells in the positive gate, x axis EGFR-BL-1H, Alexa Fluor 488 anti-human IgG secondary antibody
[11] = biological target: HER2 on SKBR-3 cells (HER2-positive) (UniProt P04626); assay: flow cytometry on SKBR3 (HER2+) cells, fraction of cells in the positive gate, x axis HER2-BL-1H, Alexa Fluor 488 anti-human IgG secondary antibody
[12] = biological target: PD-1 on CD3-activated human T cells (PD-1-positive) (human) (UniProt Q15116); assay: flow cytometry on CD3-activated human T cells (PD-1+), fraction of cells in the positive gate, x axis PD-1-BL-1H, Alexa Fluor 488 anti-human IgG secondary antibody
Chain of PD-1 on CD3-activated human T cells (PD-1-positive) (human) (Q15116 25-288): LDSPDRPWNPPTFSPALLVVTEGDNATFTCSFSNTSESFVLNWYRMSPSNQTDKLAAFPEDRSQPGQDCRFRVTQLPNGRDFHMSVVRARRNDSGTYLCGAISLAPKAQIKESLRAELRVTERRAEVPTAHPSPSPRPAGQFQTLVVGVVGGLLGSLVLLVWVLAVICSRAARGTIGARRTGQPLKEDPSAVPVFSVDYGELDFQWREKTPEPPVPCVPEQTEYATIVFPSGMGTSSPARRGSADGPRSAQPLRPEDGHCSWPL

| Substance | percent of cells with fluorescence [1] | Kd [2] | Kd [3] | percent of cells in the positive gate [4] | percent of cells in the positive gate [5] | Kd [6] | Kd [7] | percent of cells in the positive gate [8] | Kd [9] | Positive cell (%) [10] | Positive cell (%) [11] | Positive cell (%) [12] |
| --- | --- | --- | --- | --- | --- | --- | --- | --- | --- | --- | --- | --- |
| DAR1 bi-specific antibody (Cetuximab-Trastuzumab Fab) (M-3) (bispecific antibody) | > 98% | 0.3 nM | 2.6 nM | 98.2% | 97.3% |  |  |  |  |  |  |  |
| DAR1 bi-specific antibody (Trastuzumab-Cetuximab Fab) (M-4) (bispecific antibody) | > 98% |  | 2.4 nM |  | 97.9% | < 0.0019 nM | < 0.0019 nM | 99.6% |  |  |  |  |
| Tri-specific antibody (Pembrolizumab Fab-Cetuximab-Trastuzumab Fab) (M-2) | > 98% |  | 2.4 nM |  |  |  |  |  | 1.1 nM | 98.9% | 97.2% | 21.4% |
